Experimental findings from patent publication US20120283421A1 (published 2012) are described below.

The experiment addresses T1, nine-person peanut-specific IgE antibody pool.
T1 construct: polyclonal human serum IgE; also called pooled serum; peanut-positive serum pool
Nature of the experiment: competitive ELISA inhibition, pooled serum IgE on coated crude peanut. (In general: An ELISA detects its analyte on a solid surface through an enzyme-linked reagent.)

B1: Ara h 1 (purified from peanut) (other)
chain: KSSPYQKKTENPCAQRCLQSCQQEPDDLKQKACESRCTKLEYDPRCVYDPRGHTGTTNQRSPPGERTRGRQPGDYDDDRRQPRREEGGRWGPAGPREREREEDWRQPREDWRRPSHQQPRKIRPEGREGEQEWGTPGSHVREETSRNNPFYFPSRRFSTRYGNQNGRIRVLQRFDQRSRQFQNLQNHRIVQIEAKPNTLVLPKHADADNILVIQQGQATVTVANGNNRKSFNLDEGHALRIPSGFISYILNRHDNQNLRVAKISMPVNTPGQFEDFFPASSRDQSSYLQGFSRNTLEAAFNAEFNEIRRVLLEENAGGEQEERGQRRWSTRSSENNEGVIVKVSKEHVEELTKHAKSVSKKGSEEEGDITNPINLREGEPDLSNNFGKLFEVKPDKKNPQLQDLDMMLTCVEIKEGALMLPHFNSKAMVIVVVNKGTGNLELVAVRKEQQQRGRREEEEDEDEEEEGSNREVRRYTARLKEGDVFIMPAAHPVAINASSELHLLGFGINAENNHRIFLAGDKDNVIDQIEKQAKDLAFPGSGEQVEKLIKNQKESHFVSARPQSQSQSPSSPEKESPEKEDQEEENQGGKGPLLSILKAFN
modifications: glycoprotein (PAS positive); fluorescein-labelled tracer in Example 6
notes: Native allergen from peanut extract; Forms trimers and hexamers
A word on the IC50: it is the concentration that gives 50% inhibition. On to B1, for which the IC50 is 5.5 ng/mL.
